Data published in patent publication EP2002021B1.

What was measured:
Assay in all cases: cell-based or functional assay
[1] = target: EGFR-TEV-NIa-Pro cleavage (Leu)-tTA (human) (UniProt P00533)
[2] = target: IGF1R-TEV-NIa-Pro cleavage (Leu)-tTA (human) (UniProt P08069)
[3] = target: CCR5-tTA fusion construct containing the low efficiency cleavage site (UniProt P51681)
Chain of UniProt P51681 (P51681 whole entry, form in doubt, the tested form may be a part): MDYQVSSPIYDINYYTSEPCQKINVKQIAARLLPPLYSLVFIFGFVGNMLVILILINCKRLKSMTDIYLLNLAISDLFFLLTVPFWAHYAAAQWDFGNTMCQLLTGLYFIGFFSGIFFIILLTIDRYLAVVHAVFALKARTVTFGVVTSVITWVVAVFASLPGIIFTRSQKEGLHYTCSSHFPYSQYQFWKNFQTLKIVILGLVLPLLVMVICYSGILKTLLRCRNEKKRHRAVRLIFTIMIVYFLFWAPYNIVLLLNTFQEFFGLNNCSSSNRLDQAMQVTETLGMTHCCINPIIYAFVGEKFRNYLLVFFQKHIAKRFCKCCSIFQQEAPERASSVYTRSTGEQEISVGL

Chain of UniProt P08069 (P08069 whole entry, form in doubt, the tested form may be a part): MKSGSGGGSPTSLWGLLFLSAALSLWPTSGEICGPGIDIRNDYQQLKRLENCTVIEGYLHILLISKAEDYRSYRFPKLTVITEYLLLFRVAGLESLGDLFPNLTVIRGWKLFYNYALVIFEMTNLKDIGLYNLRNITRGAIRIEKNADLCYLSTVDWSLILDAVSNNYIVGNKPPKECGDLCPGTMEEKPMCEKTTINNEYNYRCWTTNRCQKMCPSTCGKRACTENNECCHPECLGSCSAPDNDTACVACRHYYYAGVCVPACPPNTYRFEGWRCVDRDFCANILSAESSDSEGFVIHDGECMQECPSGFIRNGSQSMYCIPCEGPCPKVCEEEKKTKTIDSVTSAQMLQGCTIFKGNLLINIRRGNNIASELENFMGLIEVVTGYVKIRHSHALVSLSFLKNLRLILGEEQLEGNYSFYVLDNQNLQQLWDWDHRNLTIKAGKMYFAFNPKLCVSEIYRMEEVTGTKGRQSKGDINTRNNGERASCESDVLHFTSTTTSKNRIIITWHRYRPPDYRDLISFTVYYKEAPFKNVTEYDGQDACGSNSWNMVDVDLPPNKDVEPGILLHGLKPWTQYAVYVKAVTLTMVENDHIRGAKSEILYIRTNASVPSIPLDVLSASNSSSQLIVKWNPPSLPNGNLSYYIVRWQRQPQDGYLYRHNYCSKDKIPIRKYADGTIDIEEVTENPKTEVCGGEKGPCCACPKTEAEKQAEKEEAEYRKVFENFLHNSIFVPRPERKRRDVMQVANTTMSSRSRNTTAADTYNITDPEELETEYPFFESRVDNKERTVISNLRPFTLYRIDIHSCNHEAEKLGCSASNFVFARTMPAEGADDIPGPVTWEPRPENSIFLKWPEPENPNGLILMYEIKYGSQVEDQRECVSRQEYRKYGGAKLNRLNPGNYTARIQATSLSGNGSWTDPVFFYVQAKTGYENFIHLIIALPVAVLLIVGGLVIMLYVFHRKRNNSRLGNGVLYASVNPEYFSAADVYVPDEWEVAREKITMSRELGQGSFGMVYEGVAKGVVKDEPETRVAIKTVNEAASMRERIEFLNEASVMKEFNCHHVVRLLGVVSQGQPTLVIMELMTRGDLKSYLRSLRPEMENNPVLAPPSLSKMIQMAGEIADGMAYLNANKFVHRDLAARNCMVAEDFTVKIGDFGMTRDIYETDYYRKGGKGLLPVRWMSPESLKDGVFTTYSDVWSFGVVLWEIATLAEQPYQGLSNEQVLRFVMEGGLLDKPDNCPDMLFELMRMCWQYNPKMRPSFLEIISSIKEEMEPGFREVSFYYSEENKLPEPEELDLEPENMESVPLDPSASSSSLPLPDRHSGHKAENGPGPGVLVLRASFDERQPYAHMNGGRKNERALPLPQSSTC

## PLC Gamma1-TEV
[1]
  fold increase of luciferase reporter gene activity, 2.5 ng/ml EGF: 12.3 fold
  fold increase of luciferase reporter gene activity, 100 ng/ml TGF-alpha: 18.3 fold

## SHC1-TEV (from UniProt P29353 1-238)
[2]
  fold increase of luciferase reporter gene activity, 1 µM IGF-1: 90 fold

## Regulated on Activation, Normal T-Cell Expressed and Secreted (RANTES) (from UniProt P13501 24-91) (ligand)
[3]
  fold induction of reporter gene expression over the background, 1 µg/ml RANTES, clone 34 cells: 40 fold

## human Transforming Growth Factor - Alpha (from UniProt P01135 40-89) (ligand)
[1]
  fold increase of luciferase reporter gene activity, 100 ng/ml TGF-alpha: 18.3 fold
